Consider ten sequences from the Immune Epitope Database (IEDB).

In assay [1] the target is HLA-A*69:01. In words: IEDB peptide-MHC binding, purified MHC/competitive/fluorescence; filed as Kd, often an IC50 or EC50 that approximates it; ≥ and ≤ were set here for values at or beyond the usual limits of such assays.
The target of the next assay is HLA-B*15:17. The description is as above. The settings on record: source organism: Mycobacterium tuberculosis variant bovis BCG str. Pasteur 1173P2.
The target in a further assay is HLA-A*26:03. Described as above. The settings on record: source organism: Mycobacterium tuberculosis variant bovis BCG str. Pasteur 1173P2.
Assay [2] concerns the target HLA-A*01:01. The assay is described as above. The settings on record: source organism: Mycobacterium tuberculosis variant bovis BCG str. Pasteur 1173P2.
Assay [3] deals with HLA-A*26:01. Described as above. The settings on record: source organism: Mycobacterium tuberculosis variant bovis BCG str. Pasteur 1173P2.
A further assay deals with HLA-A*02:06. The description is as above.
The target in a further assay is HLA-A*68:02. Described as above. The settings on record: source organism: Mycobacterium tuberculosis variant bovis BCG str. Pasteur 1173P2.
In a further assay the target is HLA-A*26:02. The assay is described as above. The settings on record: source organism: Mycobacterium tuberculosis variant bovis BCG str. Pasteur 1173P2.
The target of another assay is HLA-B*07:02. Kind of assay: IEDB peptide-MHC binding, purified MHC/direct/fluorescence; filed as Kd, often an IC50 or EC50 that approximates it; ≥ and ≤ were set here for values at or beyond the usual limits of such assays.
In the next assay the target is HLA-B*58:01. The assay is described as above.
A further assay addresses HLA-B*48:01. The description is as above. The settings on record: source organism: Mycobacterium tuberculosis.
The next assay has as its target HLA-B*40:01. The description is as above.
Assay [4] concerns the target HLA-A*02:01. Described as above.
A further assay concerns the target HLA-A*11:01. The description is as above.
Another assay concerns the target HLA-B*27:05. The description is as above.
A further assay concerns the target HLA-A*31:01. The assay is described as above.
A further assay deals with HLA-B*08:01. The description is as above. The settings on record: source organism: Burkholderia mallei.
For assay [5], the target named is HLA-A*69:01. The description is as above.
The target in the next assay is HLA-C*08:02. Described as above.
The target in assay [6] is HLA-B*35:01. Described as above. The settings on record: source organism: Burkholderia mallei.
The target in the next assay is HLA-C*05:01. The description is as above.
In assay [7] the target is HLA-B*15:01. Described as above. The settings on record: source organism: Burkholderia mallei.
Another assay addresses HLA-A*24:03. The description is as above. The settings on record: source organism: Burkholderia mallei.
The target of assay [8] is HLA-A*01:01. The assay is described as above.
Assay [9] concerns the target HLA-A*26:01. Described as above. The settings on record: source organism: Burkholderia mallei.
In a further assay the target is HLA-A*03:01. Described as above. The settings on record: source organism: Burkholderia mallei.
Assay [10] addresses HLA-A*02:01. In words: IEDB peptide-MHC binding, cellular MHC/competitive/fluorescence; ≥ and ≤ were set here for values at or beyond the usual limits of such assays.
The target of a further assay is HLA-B*18:01. Kind of assay: IEDB peptide-MHC binding, purified MHC/competitive/fluorescence; filed as Kd, often an IC50 or EC50 that approximates it; ≥ and ≤ were set here for values at or beyond the usual limits of such assays. The settings on record: source organism: Mycobacterium tuberculosis variant bovis BCG str. Pasteur 1173P2.
Assay [11] has as its target HLA-B*35:01. The assay is described as above. The settings on record: source organism: Mycobacterium tuberculosis variant bovis BCG str. Pasteur 1173P2.
The target of assay [12] is HLA-B*15:01. The assay is described as above. The settings on record: source organism: Mycobacterium tuberculosis variant bovis BCG str. Pasteur 1173P2.
The target of the next assay is HLA-B*57:01. Kind of assay: IEDB peptide-MHC binding, purified MHC/direct/fluorescence; filed as Kd, often an IC50 or EC50 that approximates it; ≥ and ≤ were set here for values at or beyond the usual limits of such assays. The settings on record: source organism: Mycobacterium tuberculosis.
A further assay has as its target HLA-B*46:01. The description is as above. The settings on record: source organism: Mycobacterium tuberculosis.
For another assay, the target named is HLA-C*07:02. Described as above. The settings on record: source organism: Entamoeba histolytica HM-1:IMSS.
The target in a further assay is HLA-C*06:02. The description is as above. The settings on record: source organism: Entamoeba histolytica HM-1:IMSS.
Another assay concerns the target HLA-B*14:02. Described as above. The settings on record: source organism: Homo sapiens.
For another assay, the target named is HLA-A*02:11. Kind of assay: IEDB peptide-MHC binding, purified MHC/competitive/fluorescence; filed as Kd, often an IC50 or EC50 that approximates it; ≥ and ≤ were set here for values at or beyond the usual limits of such assays. The settings on record: source organism: human gammaherpesvirus 4.
The next assay addresses HLA-A*02:19. The assay is described as above. The settings on record: source organism: human gammaherpesvirus 4.
The target of a further assay is HLA-A*02:03. The description is as above. The settings on record: source organism: human gammaherpesvirus 4.
The target of assay [13] is HLA-A*02:01. The assay is described as above. The settings on record: source organism: human gammaherpesvirus 4.
A further assay concerns the target HLA-A*02:12. The assay is described as above. The settings on record: source organism: human gammaherpesvirus 4.
A further assay concerns the target HLA-A*02:16. The description is as above. The settings on record: source organism: human gammaherpesvirus 4.
Where [14] appears, read: source organism: Mycobacterium tuberculosis variant bovis BCG str. Pasteur 1173P2.
Where [15] appears, read: source organism: Mycobacterium tuberculosis.
Where [16] appears, read: source organism: Burkholderia mallei.
[17] abbreviates: source organism: Burkholderia pseudomallei 91.
Where [18] appears, read: source organism: Entamoeba histolytica HM-1:IMSS.
The mark [19] stands for this setting: source organism: human gammaherpesvirus 4.

ATADLELAY: the Kd with HLA-A*69:01 [1] (setting [14]) was not below 20 µM; in the assay with HLA-B*15:17 it was 0.0111 µM; in the assay with HLA-A*26:03, not below 20 µM; in the assay with HLA-A*01:01 [2] it was 0.0227 µM; with HLA-A*26:01 [3], 0.428 µM; in the assay with HLA-A*02:06 (setting [14]), 2.5 µM. Further, the Kd is not below 20 µM with HLA-A*68:02; 0.13 µM with HLA-A*26:02; not below 20 µM with HLA-B*07:02 (setting [15]); 0.0098 µM with HLA-B*58:01 (setting [15]); not below 20 µM with HLA-B*48:01; not below 20 µM with HLA-B*40:01 (setting [15]). Besides, the Kd was 0.818 µM with HLA-A*02:01 [4] (setting [15]), 0.0105 µM with HLA-A*11:01 (setting [15]), not below 20 µM with HLA-B*27:05 (setting [15]) and not below 20 µM in the assay with HLA-A*31:01 (setting [15]).
In the case of ISDSAQNMM, the Kd with HLA-B*07:02 (setting [16]) is not below 20 µM; with HLA-B*08:01 it was not below 20 µM; with HLA-A*69:01 [5] (setting [16]) it was not below 20 µM; with HLA-B*58:01 (setting [16]) it was 0.151 µM; in the assay with HLA-C*08:02 (setting [17]), not above 0.001 µM; with HLA-B*35:01 [6], 0.0402 µM. Besides, the dissociation constant (Kd) in the assay with HLA-B*40:01 (setting [16]) was not below 20 µM; with HLA-A*02:01 [4] (setting [16]), not below 20 µM; with HLA-A*11:01 (setting [16]) it was not below 20 µM; with HLA-B*27:05 (setting [16]), not below 20 µM; with HLA-C*05:01 (setting [17]), 0.003 µM; with HLA-A*31:01 (setting [16]), not below 20 µM. Also, the Kd with HLA-B*15:01 [7] was not below 20 µM; with HLA-A*24:03 it was not below 20 µM; with HLA-A*01:01 [8] (setting [16]), 1.04 µM; with HLA-A*26:01 [9] it was not below 20 µM; with HLA-A*03:01 it was not below 20 µM.
Sequence KMDASLGNLFA displayed a half-inhibitory concentration (IC50) with HLA-A*02:01 [10] (source organism: Homo sapiens) of 1.11 µM.
With AVFLSYIGY, the dissociation constant Kd in the assay with HLA-B*18:01 is not below 20 µM; with HLA-B*35:01 [11] it was 3.95 µM; in the assay with HLA-B*15:17, 0.315 µM; with HLA-B*15:01 [12], 1.84 µM; with HLA-A*26:03, not below 20 µM; with HLA-A*26:01 [3], not below 20 µM. Also, the Kd was 3.04 µM in the assay with HLA-A*68:02; not below 20 µM with HLA-B*07:02 (setting [15]); not below 20 µM with HLA-A*69:01 [5] (setting [15]); 17 µM in the assay with HLA-B*58:01 (setting [15]); not below 20 µM in the assay with HLA-B*57:01; not below 20 µM in the assay with HLA-B*48:01. In addition, the Kd is not below 20 µM in the assay with HLA-B*46:01; not below 20 µM with HLA-B*40:01 (setting [15]); not below 20 µM in the assay with HLA-A*02:01 [4] (setting [15]); 1.56 µM with HLA-A*11:01 (setting [15]); not below 20 µM with HLA-B*27:05 (setting [15]); not below 20 µM with HLA-A*31:01 (setting [15]). Further, the Kd with HLA-A*01:01 [8] (setting [15]) was not below 20 µM.
Take FAMRLLQAV: the Kd with HLA-C*08:02 (setting [18]) worked out at 0.017 µM; with HLA-C*05:01 (setting [18]), 3.17 µM; in the assay with HLA-C*07:02, 2.89 µM; in the assay with HLA-C*06:02, 0.844 µM.
For LLLDVPTAAV, the 50% inhibitory concentration (IC50) in the assay with HLA-A*02:01 [10] (source organism: Homo sapiens) was found to be 0.53 µM.
VSPLHRVL had a dissociation constant (Kd) with HLA-B*14:02 of 0.0896 µM.
On the same count and under the same terms, to LQVAHEEI belongs 0.528 µM.
On the same count and under the same terms, with NQIIHRDL the figure was 0.13 µM.
Turning to CLGGLLTMV, the equilibrium dissociation constant (Kd) was 3.17 µM with HLA-A*69:01 [1] (setting [19]); not above 0.0001 µM with HLA-A*02:11; 0.0075 µM in the assay with HLA-A*02:19; 0.00067 µM with HLA-A*02:03; 0.023 µM with HLA-A*02:01 [13]; not above 0.001 µM with HLA-A*02:12. In addition, the equilibrium dissociation constant (Kd) with HLA-A*02:06 (setting [19]) and with HLA-A*02:16 was not above 0.0001 µM in each case. The sequence further had an IC50 with HLA-A*02:01 [10] (setting [19]) of 2.5 µM.

The term Kd denotes the concentration at which binding is half-saturated. Read a low Kd as tighter binding. As usually defined, the IC50 is the concentration that gives 50% inhibition. The low end stands for greater potency in that assay, the high end for weaker potency in that assay.
